{"source": "paper PMC5292672", "molecular_target": "herpes virus entry mediator (HVEM) (human (endogenous in monocyte‐derived macrophages)) (UniProt Q92956)", "sequence (Q92956 39-283)": "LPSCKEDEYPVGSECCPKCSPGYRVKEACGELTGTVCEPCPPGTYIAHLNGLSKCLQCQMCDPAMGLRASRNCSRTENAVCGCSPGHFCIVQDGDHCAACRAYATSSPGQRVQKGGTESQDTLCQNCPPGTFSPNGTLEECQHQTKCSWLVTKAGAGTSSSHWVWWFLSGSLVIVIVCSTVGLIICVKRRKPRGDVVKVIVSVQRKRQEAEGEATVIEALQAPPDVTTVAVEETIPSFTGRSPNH"}
{"substance": "recombinant His‐tagged HSV‐1 gD (glycoprotein D of herpes simplex virus‐1) (from UniProt Q69091 26-394) (natural protein)", "values": [{"measurement": "decrease of staurosporin-induced caspase-3 activity in primary macrophages exposed before to HSV-1 gD, against staurosporin alone", "value": 75, "unit": "%"}]}
{"substance": "recombinant human cyclophilin B (from UniProt P23284 34-216) (natural protein)", "values": [{"measurement": "decrease of staurosporin-induced caspase-3 activity in primary macrophages exposed before to CyPB, against staurosporin alone", "value": 75, "unit": "%"}]}
